In the DeepSol protein solubility set:

Experiment: soluble on expression in E. coli; label from the status in PepcDB or PDB records

Row | Sequence | soluble on expression in E. coli
1 | IKEGQLAEKTIRANKNIENTYETEQRKKLAAEAVTPEYIYQEDTASVQHNRIDKLFKLIDSANEKVDKEYSNKQAKAKKEETIPAPTVEERVASLKSLFESLPQDEVTFYQSFPNVFYQTIFTLTSEQLDKVRSESLMLVDDAMQNHVRESDLDKIRQEANGKIQYLDITSTMQQVIRYIVNQGIVVNDIANEKRTEELRQKAMNAVQPAMIYQGEIIVREGTQIDAKAVEKLELLGMTSQNTS | not soluble
2 | MGSDKIHHHHHHMLFFSFILLPELDVTMEDSGRRIKNEYRAWKERKMTKLTVGLALGSGAAKGWAHIGVLNGLAKLDIYPDKVAGCSVGALVGAAYANNHLGELETWVSGFSSWDVLGLMDLGWRKGGLISGEKVFDVLANRIGDIDIEQLNRPFAAVATDLYSGQEIWFKEGDLRHAVRASCSMPGFLPPVQQGHRWVVDGAVVNPVPVSLARSMGVDVVIAVDLNGHRRGQMHLIPEQVKSRKASKSEPIDEKRELESGFMDLWGKGKDYMNGLTDKFSLGSSKSHPGMLAVMSQSMDILEQRHKRSRLMGEPPDICIVPDVGDIGTMEFHRAKEAIKAGEQAVNDIKHLIEATLK | not soluble
3 | MELLCPAGNLPALKAAIDNGADAVYIGLKDDTNARHFAGLNFTDKKLQEAVNYVHSRKRKLHIAINTFAHPDGYARWQRAVDMAAQLGADALILADLAMLEYAAERYPQVERHVSVQASATNDEAIRFYQRHFDVARVVLPRVLSMHQVKQLSRTSPVPLEVFAFGSLCIMAEGRCYLSSYLTGESPNTVGACSPARFVRWQQTPQGMESRLNDVLIDRYEDHENAGYPTLCKGRYRVDGQRYHALEEPTSLNTLELLPELFAANIASVKIEGRQRSPAYVSQVAKVWRQAIDLYQANPAQFAAKAEWMEQLGAMSEGTQTTLGAYHRKWQ | not soluble
4 | MTQAADILIAGGGLNGPALALALARNGFSVTVVDGRPAPQRAEPGFDGRAYALALASKRLLAALGLWDGLASQAQPILRVVTADGTTAGGPSPFVLAFDHAEIEEGPMGYLLEDRFLYAAFLAALEAEPRIRLVSGTTVEAQEVGPQGVTVTLSTGAQLSGRLLVGCDGRQSGTARRAGIRRSGWGYGQTALVTAIEHERPHEGTAWQYFLPGGPLAILPLPGGHRSSIVWSESDAAAAGIQRLPDADYLGALRPRFGDFLGSIRLAGDRFTYPLSLSLAHSFVAPRVALVGDAAHGVHPIAGQGLNLGLRDVAALAEVLTLAARRGEDVGSPLVLDRYQQWRRFDATALALGMDMVNRLFSNDNPVMRAGRDLSMGIVNALPGLRRGFIRQAAGLSGDLPRLLQGRPILEHHHHHH | not soluble
5 | STNLRAWLYQGDHCLESRQSEAGVTRLNGKSPAAVLAEVTTDWREENTPVVMAGMVGSNVGWKVAPYLSVPARFSSIGEQLTSVGDNIWIIPGLCVSHDDNHNVMRGEETQLIGARALAPSSLYVMPGTHCKWVQADSQQINDFRTVMTGELHHLLLNHSLIGAGLPPQENSADAFAAGLERGLNAPAILPQLFEVRASHVLGTLPREQVSEFLSGLLIGAEVASMRDYVTHQHAITLVAGTSLTARYQQAFQAMGCDVAAVAGDTAFQAGIRSIAHAVAN | not soluble
6 | MSLSSQPRFIHLRTHTDFSMIDSIVKVKPLVKACAANEMVAMGLTDFTNFCGVVSFYSEMLSSGMKPIIGADVKVKSPLCGDEYFDLTLLAKNNEGYRNITLLLSKAYQRGYNDLPYIDQDWLIEHRDGVIILSGGTQGDVGKKLLKENVAEIESAVAFYQEFFADHFYLALSRTGRPNEERYIQAALKLAERCDLPLVATNDVMFLNTEDFEAHEIRVAIHDGYTLDDPKRPKCYTSQQYFRSEEDMCKLFADEGHHHHHH | soluble
7 | LKQLLALDKNIERMECFDISHTQGEATVASCVVFDTEGPRPSEYRRFNIEGITPGDDYAAMEQAVTRRFKRLIDVQLLPDVLIIDGGKGQVSIVKRVLTSLGVEDITLLGVSKGPSRKAGWEKLILVNENREFVLPEDSKALHLLQHIRDEAHRFAI | not soluble
8 | MEILNQFSQFSPNMEAQGASSIPQPSQDAHEKARQQAENQETAKNGMISQILDQAAMQRLSNLAVAKPEKAQMVEAALINMARRGQLSGKMTDDGLKALMERVSAQTQKATSVKFDRRRNELDSDEELDL | not soluble
9 | MGSSHHHHHHGGTGENLYFQGGSGMAYRHQATDQFHRFLHNPHVVQPDGVDGLPRVKGDQQQWLNTEQWHGYSDTYLQRHMQYPATVELNNPAVNARHDLLYECLGLVYELYGGLAEDLQELHDDPLHPHFHRRIARIKRDRERIATELDKRYAKLHPTVKTVYDAFLVRRYYHLADWIEHVERKRERLINDLSPDVMEKTMRMRGIAEQYLRHLRALEHALYEDPLMGLLGGDRGTNVLDQYTPGELAMLRQKAAYFRNMRRFGANQLDADMHTH | soluble
10 | MIKFYQYKNCTTCKKAAKFLDEYGVSYEPIDIVQHTPTINEFKTIIANTGVEINKLFNTHGAKYRELDLKNKLQTLSDDEKLELLSSDGMLVKRPLAVMGDKITLGFKEDQYKETW | soluble
11 | MSEITTLQPSLLWKWFDQICAIPHPSHYEDTLANFIVNWAKEKHFFVERDEVGNVLIRKPATKGMENHTPVVLQAHLDMVPQANEGNPHDFTKDPIQPYIDGEWVKARGTTLGSDNGIGLASTLAVLESNDLAHPPLEVLLTMTEETGMDGAKGLRHNWLQSEILINTDTEEIGEIYIGCAGGINANFEIPVQYETNTFEHSAQITLKGLRGGHSGGDIHTGRANAIKVLARVLAKLSQNQPHFALSEIRGGSIRNAIPREAAAVLAFNGDVKTIESAVENLAVVLKEELAIAEPNFTLFVESAEKAPTVFTAQSTQTVINALNVLPNGVIRNSDVVKNVVESSLSVGVLKTEGNVVKSTILVRSLIESGKYYVTEMLSSLAILANAKVEFSAPYPGWQPVNDSTILDVTRKHYAEVLGEQPVVKVIHAGLECGLLKEHYPNIEMISVGPTIRNAHSPDEKVEIATVQTYWDLLTRVLADIPAK | soluble
12 | MKKIISLALALALSASAAELKMATTTSTDNTGLLDALKPLYEKESGNTLKWVAVGTGAALKMGEDCNADVLFVHSPKAEKEFMKKGFGVDRTPVMYNDFIIIADKSLASKFKGKNLKESLELIKNEKLTFISRGDKSGTDNKEKSLWKNLGGVPEKQSWYQQSGQGMLASIKIAEEKKGVILTDRGTYIKYEANEKGKPNLVIVNEGDDSLKNFYSVIATNPKHCKNVNYTEASKFIKWVTSDKTLNFIADFKLLNKPLFVIDAKTRKD | not soluble
13 | MKDVAKLLKILPPTFNETVLLPVQTQLKEHYPRTVSLVKNLVSPLPEEYRFLTEVLLSVLLSGEISETIPYQALLVAHGESTATSIQAVANKLCGTYIFDAINMPLTSSVRDIVAEVKEWLSQRDTSQGVIMLVDMGSLTQLYKSLKPQILGELLVINNLTTAYALEIGHQLMNEQLFYGIAKTAEKKFKTDVQYFEGFSVEKNIIVSSISGLDIAKQIKQICQKYLYTDIKVITLKYKDLVNTLDIANAEENYLKETSLILTTSYLDNHTNVASVNLLDMLDEDAGTQLMEPFQNLMHPNNIDSMINEFVHFFSKEGLSEKLEFLNPDVIIKQVENVTKNIEKRFDLTLSGKMKFNLMMHNALMVERTMLGVEDYEIPANLEELTINQKPFFQNAKNIFYTLEQFYRIEISNWELYVIYEILSSR | not soluble
14 | MGSDKIHHHHHHMTTTSPDISRFGPIGLVVIQSTSLCNLDCSYCYLPDRKSRKIFDLELLPLLMQRIFESPFFGEELSLVWHAGEPLTLPCSYYDRATQLINEAVEQWTNGTVHVEQHVQTNATLINDAWCECFRRNKIIVGISVDGPKDIHDANRCFGNGEGSHVHSMRGIEALKRNKIPFHAIAVVTATAMDHPNEMYQFFRDNEIHSVGFNVEEQEGEHTSSSMQGYEREEQYRQFLESFWQLSEQDGFPVVLREFDQVISLIRENRRLNQNELNRPYSILSVDWQGNFSTFDPELLSVSSKLYGTFDLGSIRNISLMEAAKTERFQTLWKDMLSGVKRCEKECNYFGFCGGGMGSNKFWEHGSLNCSETNACRFNNKIPVDVLLDRFKSSPPIDNETPF | not soluble
15 | RDRSTIARIQFRLPDGSSFTNQFPSDAPLEEARQFAAQTVGNTYGNFSLATMFPRREFTREDYKRRLLDLELAPSASVVLLPAGRPATSIVHSSSGDILMID | soluble
16 | MGSDKIHHHHHHMTTIHVSDLSKTYGTDTNVPVLSGVSFDLTSPAIHGLIGANGVGKTTLLRILAGQSRCEGVVEVDGQPAFDNPEVMDRCVLMGIDVPLPSTWRGTKLLSFAQHRYPRWDEARCAQLIDAFQVPVDKPYQSLSRGQKSALGIIIAFSATCDITLLDEPYLGLDVANRDLFYRELRAEQARCPRLIILSTHHINEASHVFDSVMVLKKDGVALQGDVESITGRVVELVGPKATIEGFVSHPARRIGEVHTAGGVAKVLAEARAEEWDQLSALGLRTHEVSLERAVMFLECD | not soluble
17 | MGSDKIHHHHHHMATLLTLLLLFATPIAIRAEEFVWPEPSNAIERKFEKAALTSDNAACSKIGGEILRKGGNSIDASIASMFCLGVVNPQSSGIGGGFLMTYFDQKSGDCYSIDARETAPAAASRDMFLNDSDGSKYGFKAAGTPGEIAGYWHIFKKFGSGKVTWKELVQPSVKLAREGHPVSPYLATVMKVKERHFRLFPSVKASSIKLSMFYRHWINPETNDTYQSGDLLKRPKLAKTLERLGNSPNPVQLFYHGEMAKTLAKEFQEGGGLITEQDLANYKVREYVNSNSNDHFRGTLTMCGGPPPSSFGVTQLIVSAMSKLFPEGHKDDIYNDPKVLHKYIEAMKFAYAQRTLLGDHDFVKGALELSKNLTTPEYTQWVIDRMTDKAQSSKNYGGIAQYVPPDHGTSHVSAMDQYGNGVSATTTINRWFGAAVESSEYGILWNDEMDDFSTPGMENGFGFAPSETNFIEPGKRPMSSMSPMVIFDHVTKKVRMVIGGSGGSKIISALAKSIVRSLIFHDSIKKAIDAPMIHNQFTPDITQLDDEFPINMKNILESEYLQKFRNTTGFEGIIQGVNVLNDGIYACGDYRRKTDQEPSGF | not soluble
18 | MSHHHAPVDFEKEASILRNHFNNAEIDLLLLIKKHVMYGAKNPTKWKFIQQSRLIRFKRELKAHISLFKDETRNKIDKLTYRVYLDCVNEYEDEMEARYQTKKEVDIQNDDYLSESDALIQISEDMANYWQKIAPSKYKQVVKETKDSNGVLKYAIATSLINVLGDGIRNVIDQSGRKYRPGAYMEMASRGAFFNVGLNAMKRVLGRYEHELVQVSAHVRSCPRCAPWQGEVLSVNYESNEYKTLQEAENDGLFHPNCHHFLYSYFEGDETDEPIPYDEEEYEAQSKQRYYERGIRDWKTKDILAEGPSKQYTAGKVKQWEEALQEHLNNN | not soluble
19 | MSLSLYDSAHSLDGKSGWDTPVFSMKDSMDRNPMVTEAWEALCQSQVYFRGKPVGTIAAYDHASEEVLNYDQVFVRDFVPSALAFLMNGEPEIVKNFLLKTLHIQGQDKMIDKFKLGDGAMPASFKVLHNPIKKTDTIIADFGESAIGRVAPVDSGFWWIILLRAYTKSTGDHSLAERPECQKGMRLILSLCLSEGFDTFPTLLCADGCSMVDRRMGIYGYPIEIQALFFMALRSALSMLKHDSEGKEFMEKIVKRLHALSFHMRSYFWLDFQQLNDIYRYKTEEYSHTAVNKFNVIPDSIPDWIFDFMPLRGGYFVGNVSPARMDFRWFALGNCIAILSSLATPEQSMAIMDLIEARWEELVGEMPLKICYPAMESHEWGIVTGCDPKNTRWSYHNGGSWPVLLWLLTAASIKTGRPQIARRAIELAEARLLKDGWPEYYDGKSGRFIGKQARKSQTWSIAGYLVAKMMMDDPTHVGMISMEEEKHMKPPLRRSSSWT | soluble
20 | MSRSPDAKEDPVECPLCMEPLEIDDINFFPCTCGYQICRFCWHRIRTDENGLCPACRKPYPEDPAVYKPLSQEELQRI | soluble
